The record followed here is patent publication US20250027068.

The chains are these.
B1: PRT-476 (protein)
chain: MVTSVWTKGVTPPTNFTYGEDVLHAPYVANQGWYDITKAFDGGDDLLCGAATAGNMLHWWFDQNKEQIENYLKKHPEKQKINFNGEQMFDVKEAIDTKDSQTNSELFNYFKEKAFPYLSTKHLGVFPDHVIDMFINGYRLSLTNHGPTPVKRGSKDPRGGIFDAVFTRGDQSKLLTNRHDLKNKTLKEISDLIKQELTEGKALGISHTYANVRINHVINLWGADFDAEGNLEAIYVTDSDSNASIGMKKYFVGVNSNGKVAISAKEIEEDNIGAQVLGLFTLSTGQDIWNQTNLEHHHHHH
B2: PRT-506 (protein)
chain: MITSVWTKGVTPPTDFIKGEDVFHAPYKAGQGWYDITKTFNGKDDLLCGAATAGNMLHWWFDQNKEEIEAYLKKHPEKQKIMFGDQELLDVRKVINTKDSQTNSALFNYFKDKAFPNLSARRLGVMPDLVLDMFINGYYLNVYKTQTTDVNRTYQTKDRRGGIFDAVFTRGDQSKLLTERHDFKEKTLKEISDLIKQELTEGKALGLSHTYANVRINHVINLWGADFDSNGNLEAIYVTDSDSNASIGMKKYFVGVNSAGKVAISAKEIKEDNIGAQVLGLFTLSTGQDIWNQTNLEHHHHHH
B3: PRT-513 (protein)
chain: MITSVWTKGVTPPAKFTQGEDVFHAPYVANQGWYDITKTFNGKDDLLCGAATAGNMLHWWFDQNKEEIEAYLKKHPEKQKIMFGDQELLDVRKVINTKDSQTNSALFNYFKDKAFPNLSARRLGVMPDLVLDMFINGYYLNVYKTQTTDVNRTYQTKDRRGGIFDAVFTRGDQSKLLTERHDLKNKTLKEISDLIKQELTEGKALGLSHTYANVRINHVINLWGADFDSNGNLEAIYVTDSDSNASIGMKKYFVGVNSAGKVAISAKEIKEDNIGAQVLGLFTLSTGQDIWNQTNLEHHHHHH
B4: PRT-508 (protein)
chain: MITSVWTKGVTPPTDFIKGEDVFHAPYKAGQGWYDITKTFNGKDDLLCGAATAGNMLHWWFDQNKEEIEAYLKKHPEKQKIMFGDQELLDVRKVINTKDSQTNSALFNYFKDKAFPNLSARRLGVMPDLVLDMFINGYYLNVYKTQTTDVNRTYQTKDRRGGIFDAVFTRGDQSKLLTERHDLKNKTLKEISDLIKQELTEGKALGLSHTYANVRINHVINLWGADFDSNGNLEAIYVTDSDSNASIGMKKYFVGVNSAGKVAISAKEIKEDNIGAQVLGLFTLSTGQDIWNQTNLEHHHHHH
B5: PRT-494 (protein)
chain: MVTSVWTKGVTPPTDFIKGEDVFHAPYKAGQGWYDITKTFNGKDDLLCGAATAGNMLHWWFDQNKEYIEAYLKKHPEKQKIMFGDQELLDVRKAINTKGSQKNSELFNYFRDKAFPNLSARRLGVMPDLVLDMFINGYYLNVTKTQTTDVNRTYQEKDKRGGIFDAVFTRGDQSKLLTSRHDFKEKGLKEISDLIKQELTEGKALGLSHTYANVRINHVINLWGADFDSDGNLKAIYVTDSDSNASIGMKKYFVGVNSAGKVAISAKEIKEDNIGAQVLGLFTLSTGQDIWNQTNLEHHHHHH
B6: PRT-502 (protein)
chain: MITSVWTKGVTPPTDFIKGEDVFHAPYKAGQGWYDITKAFDGGDDLLCGAATAGNMLHWWFDQNKEYIEAYLKKHPEKQKIMFGDQELLDVRKAINTKGSQKNSELFNYFRDKAFPNLSARRLGVMPDLVLDMFINGYYLNVTKTQTTDVNRQEQEKDKRGGIFDAVFGRGDQTKLLTSRHDFKEKGLNEISQLIKQELTEGKALGLSHTYANVRINHVINLWGADFDADGNLEAIYVTDSDSNASIGMKKYFVGVNSAGKVAISAKEIKEDNIGAQVLGLFTLSTGQKIWNKTNLEHHHHHH
B7: PRT-448 (protein)
chain: MVTSVWTKGVTPPTDFIKGEDVFHAPYKAGQGWYDITKTFNGKDDLLCGAATAGNMLHWWFDQNKDQIEAYLKEHPEKQKINFNGEQMFDVKEAIDTKDDQTNSKLFEYFKEKAFPYLSTKHLGVFPDHVLDMFINGYRLSLTNHGPTPVKEGSKDPRGGIFDAVFTRGDQSKLLTSRHDLKNKTLKEISDLIKQELTEGKALALSHTYANVRINHVINLWGADFDSNGNLEAIYVTDSDSNASIGMKKYFVGVNSAGKVAISAKEIEDDNIGAQVLGLFTLSTGQDIWNQTNLEHHHHHH
B8: PRT-460 (protein)
chain: MVTSVWTKGVTPPTDFIKGEDVFHAPYKAGQGWYDITKTFNGKDDLLCGAATAGNMLHWWFDQNKDQIERYLKEHPEKQKINFNGEQMFDVKEAIDTKDSQTDSKLFEYFKEKAFPYLSTKHLGVFPDHVLDMFINGYRLSLTNHGPTPVKEGSKDPRGGIFDAVFTRGDQSKLLTSRHDLKNKTLKEISDLIKQELTEGKALGLSHTYANVRINHVINLWGADFDSEGNLKAIYVTDSDSNASIGMKKYFVGVNSAGKVAISAKEIKEDNIGAQVLGLFTLSTGQDIWNQTNLEHHHHHH
B9: PRT-478 (protein)
chain: MITSVWTKGVTPPTDFIYGEDVLHAPYKAGQGWYDITKAFDGGDDLLCGAATAGNMLHWWFDQNKEQIENYLKKHPEKQKINFNGEQMFDVKEAIDTKDSQTNSELFNYFKEKAFPYLSTKHLGVFPDHVIDMFINGYRLSLTNHGPTPVKRQEKDPRGGIFDAVFGRGDQTKLLTNRHDFKEKTLNEISQLIKQELTEGKALGISHTYANVRINHVINLWGADFDAEGNLEAIYVTDSDSNASIGMKKYFVGVNSNGKVAISAKEIEEDNIGAQVLGLFTLSTGQKIWNKTNLEHHHHHH
B10: PRT-618 (protein)
chain: MQITSVWTKGVIPLTPEQFRYNNEDVIHAPYLPHQGWYDITKAFDGGDNLLCGAATAGNMLHWWFDQNKTEIEAYLSKYPEKQKIIFNNQELFDLRAAINTKDSQTNSQLFNYFRDKAFPNLSARQLGVMPDLVLDMFINGYYLNVFKTQSTDVNRPYQDRDKRGGIFDHVFGRGDQTTLLTARHDLKNGGLNDISTIIKQELQSGRALALSHTYANVSISHVINLWGADFNAEGNLEAIYVTDSDANSSIGMKKYYVGINAHGHVAISAKKIEGENIGAQVLGLFTLSSGKEIWQKLSLEHHHHHH
B11: PRT-670 (protein)
chain: MQITSVWTKGVTPLTPEQFRNNNEDVFHAPYLPNQGWYDITKAFNGKDNLLCGAATAGNMLHWWFDQNKEEIEAYLKKYPEKQKIIFNNQELFDLRKAINTKDSQTNSALFNYFRDKAFPNLSARQLGVMPDHVLDMFINGYYLNVGKTQSTDVNRPYQDKDKRGGIFDHVFNRGDQTKLLTARHDLKNKTLNDISTLIKQELSSGKALALSHTYANVGISHVINLWGADFNAEGNLEAIYVTDSDDRASIGMKKYYVGRNASGHVAISAKKIEGENLGAQVLGLFTLSSGKEIWQKLSLEHHHHHH
B12: PRT-454 (protein)
chain: MITSVWTKGVTPPTDFIKGEDVFHAPYKAGQGWYDITKAFDGGDDLLCGAATAGNMLHWWFDQNKDQIEAYLKEHPEKQKINFNGEQMFDVKEAIDTKDDQTNSELFNYFKEKAFPYLSTKHLGVFPDHVLDMFINGYRLSLTNHGPTPVKRQEKDPRGGIFDAVFGRGDQTKLLTSRHDFKEKTLNEISQLIKQELTEGKALALSHTYANVRINHVINLWGADFDAEGNLEAIYVTDSDSNASIGMKKYFVGVNSAGKVAISAKEIEDDNIGAQVLGLFTLSTGQKIWNKTNLEHHHHHH
B13: PRT-466 (protein)
chain: MITSVWTKGVTPPTDFIKGEDVFHAPYKAGQGWYDITKAFDGGDDLLCGAATAGNMLHWWFDQNKDQIERYLKEHPEKQKINFNGEQMFDVKEAIDTKDSQTNSELFNYFKEKAFPYLSTKHLGVFPDHVLDMFINGYRLSLTNHGPTPVKRQEKDPRGGIFDAVFGRGDQTKLLTSRHDFKEKTLNEISQLIKQELTEGKALGLSHTYANVRINHVINLWGADFDAEGNLEAIYVTDSDSNASIGMKKYFVGVNSAGKVAISAKEIKEDNIGAQVLGLFTLSTGQKIWNKTNLEHHHHHH

This data set deals with pooled human IgG (human IgG1,2,3 and 4).
For the protein B1, the Enzyme Activity Endpoint Assay: Fab′2 came to 0 ng/µL, the Enzyme Activity Endpoint Assay: Fc was 0 ng/µL, the Enzyme Activity Endpoint Assay: IgG was found to be 2090 ng/µL and the Enzyme Activity Endpoint Assay: scIgG worked out at 0 ng/µL.

In turn, B2 displayed an Enzyme Activity Endpoint Assay: Fab′2 of 1120 ng/µL, an Enzyme Activity Endpoint Assay: Fc of 453 ng/µL, an Enzyme Activity Endpoint Assay: IgG of 43 ng/µL and an Enzyme Activity Endpoint Assay: scIgG of 0 ng/µL.

In turn, B3 registered an Enzyme Activity Endpoint Assay: Fab′2 of 397 ng/µL, an Enzyme Activity Endpoint Assay: Fc of 367 ng/µL, an Enzyme Activity Endpoint Assay: IgG of 374 ng/µL and an Enzyme Activity Endpoint Assay: scIgG of 0 ng/µL.

B4: the Enzyme Activity Endpoint Assay: Fab′2 stood at 0 ng/µL, the Enzyme Activity Endpoint Assay: Fc was 0 ng/µL, the Enzyme Activity Endpoint Assay: IgG is 0 ng/µL and the Enzyme Activity Endpoint Assay: scIgG came out at 0 ng/µL.

Consider B5, for which the Enzyme Activity Endpoint Assay: Fab′2 was 1210 ng/µL, the Enzyme Activity Endpoint Assay: Fc worked out at 489 ng/µL, the Enzyme Activity Endpoint Assay: IgG was 0 ng/µL and the Enzyme Activity Endpoint Assay: scIgG came out at 0 ng/µL.

As to B6, the Enzyme Activity Endpoint Assay: Fab′2 worked out at 307 ng/µL, the Enzyme Activity Endpoint Assay: Fc amounted to 283 ng/µL, the Enzyme Activity Endpoint Assay: IgG is 66 ng/µL and the Enzyme Activity Endpoint Assay: scIgG was found to be 296 ng/µL.

The protein B7 returned an Enzyme Activity Endpoint Assay: Fab′2 of 0 ng/µL, an Enzyme Activity Endpoint Assay: Fc of 0 ng/µL, an Enzyme Activity Endpoint Assay: IgG of 2150 ng/µL and an Enzyme Activity Endpoint Assay: scIgG of 0 ng/µL.

Turning to B8, the Enzyme Activity Endpoint Assay: Fab′2 stood at 49 ng/µL, the Enzyme Activity Endpoint Assay: Fc was determined as 108 ng/µL, the Enzyme Activity Endpoint Assay: IgG came to 26 ng/µL and the Enzyme Activity Endpoint Assay: scIgG came out at 64 ng/µL.

For B9, the Enzyme Activity Endpoint Assay: Fab′2 came out at 509 ng/µL, the Enzyme Activity Endpoint Assay: Fc came to 453 ng/µL, the Enzyme Activity Endpoint Assay: IgG was found to be 216 ng/µL and the Enzyme Activity Endpoint Assay: scIgG came out at 362 ng/µL.

With B10, the Enzyme Activity Endpoint Assay: Fab′2 was determined as 976 ng/µL, the Enzyme Activity Endpoint Assay: Fc was determined as 419 ng/µL, the Enzyme Activity Endpoint Assay: IgG is 0 ng/µL and the Enzyme Activity Endpoint Assay: scIgG was determined as 0 ng/µL.

B11 showed an Enzyme Activity Endpoint Assay: Fab′2 of 0 ng/µL, an Enzyme Activity Endpoint Assay: Fc of 174 ng/µL, an Enzyme Activity Endpoint Assay: IgG of 594 ng/µL and an Enzyme Activity Endpoint Assay: scIgG of 798 ng/µL.

Consider B12, for which the Enzyme Activity Endpoint Assay: Fab′2 is 217 ng/µL, the Enzyme Activity Endpoint Assay: Fc amounted to 317 ng/µL, the Enzyme Activity Endpoint Assay: IgG is 94 ng/µL and the Enzyme Activity Endpoint Assay: scIgG amounted to 653 ng/µL.

B13 yielded an Enzyme Activity Endpoint Assay: Fab′2 of 404 ng/µL, an Enzyme Activity Endpoint Assay: Fc of 362 ng/µL, an Enzyme Activity Endpoint Assay: IgG of 161 ng/µL and an Enzyme Activity Endpoint Assay: scIgG of 303 ng/µL.
